Substitutions are numbered along the chain they refer to.
T1: human EphB6 (Homo sapiens, UniProt O15197)
T1 construct: a protein of the extracellular region of each human Eph receptor fused with the SEAP protein and the His tag; made in house; host or cells: Expi293F cells
T1 sequence (O15197 32-594 limits assumed): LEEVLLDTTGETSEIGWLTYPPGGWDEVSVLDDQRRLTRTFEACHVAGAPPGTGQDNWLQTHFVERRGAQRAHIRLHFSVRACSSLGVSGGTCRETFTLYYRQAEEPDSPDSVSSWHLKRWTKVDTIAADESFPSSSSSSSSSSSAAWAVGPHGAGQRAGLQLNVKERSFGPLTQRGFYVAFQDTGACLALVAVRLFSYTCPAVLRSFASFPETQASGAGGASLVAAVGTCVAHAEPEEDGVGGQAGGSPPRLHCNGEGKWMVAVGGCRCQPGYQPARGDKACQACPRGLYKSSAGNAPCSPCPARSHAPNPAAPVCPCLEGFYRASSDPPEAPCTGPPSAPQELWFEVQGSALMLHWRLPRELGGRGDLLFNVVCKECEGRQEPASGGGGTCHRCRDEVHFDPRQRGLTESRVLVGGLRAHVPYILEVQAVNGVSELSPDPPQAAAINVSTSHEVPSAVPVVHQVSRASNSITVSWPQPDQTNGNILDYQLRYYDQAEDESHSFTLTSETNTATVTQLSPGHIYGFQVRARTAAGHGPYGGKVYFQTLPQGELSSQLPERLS

T2: human EphA8 (Homo sapiens, UniProt P29322)
T2 construct: a protein of the extracellular region of each human Eph receptor fused with the SEAP protein and the His tag; made in house; host or cells: Expi293F cells (culture supernatant)
T2 sequence (P29322 28-542 limits assumed): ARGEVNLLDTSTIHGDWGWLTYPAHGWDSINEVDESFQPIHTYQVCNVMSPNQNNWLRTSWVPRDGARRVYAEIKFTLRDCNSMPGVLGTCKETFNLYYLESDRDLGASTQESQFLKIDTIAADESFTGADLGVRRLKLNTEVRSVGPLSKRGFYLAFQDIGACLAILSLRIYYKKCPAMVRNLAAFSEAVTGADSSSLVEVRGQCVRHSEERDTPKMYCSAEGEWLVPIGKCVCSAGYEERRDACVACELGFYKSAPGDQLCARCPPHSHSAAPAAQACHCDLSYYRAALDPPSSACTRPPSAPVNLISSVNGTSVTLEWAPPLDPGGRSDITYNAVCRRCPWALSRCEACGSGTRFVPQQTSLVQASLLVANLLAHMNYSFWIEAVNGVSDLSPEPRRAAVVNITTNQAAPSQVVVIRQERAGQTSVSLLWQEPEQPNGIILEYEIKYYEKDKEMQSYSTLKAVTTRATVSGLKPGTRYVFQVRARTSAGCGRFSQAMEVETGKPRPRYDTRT

T3: human EphB1 (Homo sapiens, UniProt P54762)
T3 construct: a protein of the extracellular region of each human Eph receptor fused with the SEAP protein and the His tag; made in house; host or cells: Expi293F cells (culture supernatant)
T3 sequence (P54762 18-540 limits assumed): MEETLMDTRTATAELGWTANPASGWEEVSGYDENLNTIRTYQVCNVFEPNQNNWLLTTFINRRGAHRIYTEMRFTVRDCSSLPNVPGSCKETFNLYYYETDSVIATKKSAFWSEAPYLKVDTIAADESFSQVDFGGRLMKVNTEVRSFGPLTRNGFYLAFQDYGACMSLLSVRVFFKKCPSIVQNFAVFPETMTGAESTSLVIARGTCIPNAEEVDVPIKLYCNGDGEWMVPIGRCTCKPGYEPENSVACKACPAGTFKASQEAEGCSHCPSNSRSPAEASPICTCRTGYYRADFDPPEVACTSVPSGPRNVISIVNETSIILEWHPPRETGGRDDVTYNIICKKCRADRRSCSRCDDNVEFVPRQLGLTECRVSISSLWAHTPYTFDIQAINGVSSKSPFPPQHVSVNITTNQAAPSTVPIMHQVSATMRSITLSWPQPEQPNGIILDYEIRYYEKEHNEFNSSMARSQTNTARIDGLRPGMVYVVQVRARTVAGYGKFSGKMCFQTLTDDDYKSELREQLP

B1: 144 (antibody, V domains shown)
VH: QVQLVQSGSELKKPGASVKVSCKASGYTFTDYSMHWVRQAPGQGLEWMGWINTETGEPTYADDFKGRFVFSLDTSVSTAYLQISSLKAEDTAVYYCARIPLYYYGSRYWYFDVWGQGTTVTVSS
VL: DIQMTQSPSSLSASVGDRVTITCRASENIYRNLAWYQQKPGKAPQLLLYAATNLADGVPSRFSGSGSGTDYTLTISSLQPEDFATYYCQHFWGTPWTFGQGTKVEIK
modifications: synthetic humanized antibody heavy chain variable region sequence; synthetic humanized antibody light chain variable region sequence
B2: 135 (antibody, V domains shown)
VH: B1 VH
VL: EIVMTQSPATLSVSPGERATLSCRASENIYRNLAWYQQKPGQSPRLLIYAATNLADGIPARFSGSGSGTEYTLTISSLQSEDFAVYYCQHFWGTPWTFGQGTKVEIK
modifications: synthetic humanized antibody heavy chain variable region sequence; synthetic humanized antibody light chain variable region sequence
B3: 160 (antibody, V domains shown)
VH: B1 VH with V2I, E46K
VL: B1 VL
modifications: synthetic humanized antibody heavy chain variable region sequence; synthetic humanized antibody light chain variable region sequence
B4: 133 (antibody, V domains shown)
VH: B1 VH with D62Q, D63G, K65T
VL: B2 VL
modifications: synthetic humanized antibody heavy chain variable region sequence; synthetic humanized antibody light chain variable region sequence
B5: 134 (antibody, V domains shown)
VH: B1 VH with E46K, D62Q, D63G, K65T
VL: B2 VL
modifications: synthetic humanized antibody heavy chain variable region sequence; synthetic humanized antibody light chain variable region sequence
B6: 75 (antibody)
VH: B1 VH with D62Q, D63G, K65T
VL: B1 VL with Q45K, L48V
chain: ASTKGPSVFPLAPSSKSTSGGTAALGCLVKDYFPEPVTVSWNSGALTSGVHTFPAVLQSSGLYSLSSVVTVPSSSLGTQTYICNVNHKPSNTKVDKRVEPKSCDKTHTCPPCPAPPAAAPSVFLFPPKPKDTLMISRTPEVTCVVVDVSHEDPEVQFNWYVDGVEVHNAKTKPREEQFNSTFRVVSVLTVVHQDWLNGKEYKCKVSNKGLPAPIEKTISKTKGQPREPQVYTLPPSREEMTKNQVSLTCLVKGFYPSDIAVEWESNGQPENNYKTTPPMLDSDGSFFLYSKLTVDKSRWQQGNVFSCSVMHEALHNHYTQKSLSLSPG
modifications: synthetic humanized antibody heavy chain variable region sequence; synthetic humanized antibody light chain variable region sequence; synthetic antibody constant region sequence
B7: 159 (antibody, V domains shown)
VH: B1 VH with E46K
VL: B1 VL
modifications: synthetic humanized antibody heavy chain variable region sequence; synthetic humanized antibody light chain variable region sequence
B8: 132 (antibody, V domains shown)
VH: B1 VH with V2I, E46K, D62Q, D63G, K65T
VL: B2 VL
modifications: synthetic humanized antibody heavy chain variable region sequence; synthetic humanized antibody light chain variable region sequence
B9: 76 (antibody, V domains shown)
VH: B1 VH with E46K, D62Q, D63G, K65T
VL: B1 VL with Q45K, L48V
modifications: synthetic humanized antibody heavy chain variable region sequence; synthetic humanized antibody light chain variable region sequence

Target: T1, human EphB6
Assay: Selectivity ELISA of humanized antibodies for human Eph receptor
Format: binding
Details: coated protein 1 nM
Summary of the method: (§1)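 Capture ELISA: anti-6-His coat, 1% BlockAce block, Eph ECD-SEAP-His (1 nM final, Expi293F supernatant) 1 h RT, humanized Ab 1 h RT, HRP anti-IgG 1 h RT, TMB, H2SO4 stop, A450.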

hEphB6-SEAP-: absorbance at 450 nm, percentage with respect to hEphA4-SEAP-His as 100%	Molecule
5.9%	B1
5.3%	B2
6.2%	B3
4.8%	B4
5.2%	B5
4.7%	B6
5.5%	B7
4.7%	B8
5.2%	B9

Target: T2, human EphA8
Assay: as above
Format: binding
Details: coated protein 1 nM
Summary of the method: as §1

hEphA8-SEAP-: absorbance at 450 nm, percentage with respect to hEphA4-SEAP-His as 100%	Molecule
5.8%	B1
5.0%	B2
5.4%	B3
4.7%	B4
5.7%	B5
4.8%	B6
5.5%	B7
4.7%	B8
5.5%	B9

Target: T3, human EphB1
Assay: as above
Format: binding
Details: coated protein 1 nM
Summary of the method: as §1

hEphB1-SEAP-: absorbance at 450 nm, percentage with respect to hEphA4-SEAP-His as 100%	Molecule
5.7%	B1
5.1%	B2
6.1%	B3
4.6%	B4
5.1%	B5
4.4%	B6
5.3%	B7
4.8%	B8
4.9%	B9

Target: T4, human EphA5 (Homo sapiens, UniProt P54756)
T4 construct: a protein of the extracellular region of each human Eph receptor fused with the SEAP protein and the His tag; made in house; host or cells: Expi293F cells (culture supernatant)
T4 sequence (P54756 25-573 limits assumed): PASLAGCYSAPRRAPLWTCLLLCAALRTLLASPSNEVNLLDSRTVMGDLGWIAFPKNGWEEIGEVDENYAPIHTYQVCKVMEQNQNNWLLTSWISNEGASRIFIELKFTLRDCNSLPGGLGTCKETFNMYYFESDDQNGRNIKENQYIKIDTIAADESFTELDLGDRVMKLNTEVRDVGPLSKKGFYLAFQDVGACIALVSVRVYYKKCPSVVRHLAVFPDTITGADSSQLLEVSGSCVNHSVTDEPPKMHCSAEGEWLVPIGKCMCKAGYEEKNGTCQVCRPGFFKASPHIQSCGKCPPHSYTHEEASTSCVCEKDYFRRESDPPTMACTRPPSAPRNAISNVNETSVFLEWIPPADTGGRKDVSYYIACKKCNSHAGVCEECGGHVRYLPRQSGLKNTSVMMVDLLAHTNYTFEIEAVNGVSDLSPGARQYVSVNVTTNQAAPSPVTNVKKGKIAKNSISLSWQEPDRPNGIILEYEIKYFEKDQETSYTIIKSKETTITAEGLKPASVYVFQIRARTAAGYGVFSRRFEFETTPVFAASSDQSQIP
Assay: as above
Format: binding
Details: coated protein 1 nM
Summary of the method: as §1

hEphA5-SEAP-: absorbance at 450 nm, percentage with respect to hEphA4-SEAP-His as 100%	Molecule
5.6%	B1
5.0%	B2
6.5%	B3
4.7%	B4
5.2%	B5
4.7%	B6
5.5%	B7
4.7%	B8
5.3%	B9

Source: patent US10428140B2, “Anti-EphA4 antibody” (EISAI R&D MANAGEMENT CO., LTD., priority 2015, dated 2019)
